How the values were obtained:
aba2-1 mutant seeds = assay: Germination of aba2-1 background seeds on paclobutrazol or NaCl; type: in vivo, Arabidopsis; conditions: 35S-driven transgene, germination 72 hours
Description: As a further test of the ability of PYL2^CA3 to activate ABA signaling in vivo, we examined the ability of this allele to revert phenotypes caused by ABA deficiency, reasoning that effective activation of the ABA pathway should suppress phenotypes observed in the aba2 mutant. […] To test this, we examined the germination of various genotypes on paclobutrazol, an inhibitor of GA biosynthesis. Wild-type seed germination is blocked by paclobutrazol treatment but aba2 mutants germinate due to defects in ABA-induced seed dormancy. We also examined the germination of various genotypes in the presence of NaCl, which, like paclobutrazole, inhibits seed germination in an ABA- and aba2-dependent manner (Gonzalez-Guzman M. et al. (2002) Plant Cell 14(8):1833-1846; Leon-Kloosterziel K M, et al. (1996) Plant J 10 (4):655-661). […] Thus, expression of PYL2^CA3 in developing seeds is sufficient to activate an ABA-dependent physiological process despite the depleted ABA levels present in the aba2 background.
Germination tests on paclobutrazol (Wako Chemicals, Japan) and NaCl were conducted as following. Columbia, aba2-1, aba2-1; 35S::GFP-PYL2 and aba2-1; 35S::GFP-PYL2″^3 seeds were surface sterilized and plated onto ⅓ MS agar media containing 25, 50 or 100 μM paclobutrazol or 0, 50, 200, 250 mM NaCl. Control wells contained ⅓ MS agar and 0.1% DMSO, the carrier solvent for paclobutrazol. The seeds were stratified for four days in darkness and then transferred to continuous illumination at room temperature (23° C.). Germination was assayed after 72 hours; seeds showing radicals at least ½ seed length or greater were scored as positive. Each experiment was performed in triplicate; experiments were performed on seeds that were ˜6-months post-harvest.

[1] = tested on: ABA-regulated genes Em6, LEA and Rd29b; assay: qRT-PCR of ABA-regulated genes in imbibed seeds; type: in vivo, Arabidopsis; conditions: seeds imbibed 32 hours, no ABA treatment; 35S-driven lines
Protocol: To investigate if other ABA responses are affected in the PYL2^CA3 lines, we profiled the expression levels of several ABA-regulated genes using quantitative RT-PCR (qRT-PCR). For these experiments, seeds of Col, 35S::PYL2, and two independent 35S:: PYL2^CA3 transgenic lines were imbibed for 32 hours in either water or 5 μM ABA at room temperature under continuous illumination, after which RNA was isolated using Concert™ Plant RNA Reagent and utilized in qRT-PCR reactions using primers for the ABA-regulated genes Em6 (At2g40170), LEA (At2g21490), and Rd29b (At5g52300). Biological duplicates with triple technical replicate measurements were conducted and gene expression levels were determined. […] Real-time quantitative PCR analysis was performed by ΔΔCt method of relative quantification. […]
Wild type or transgenic lines were imbibed for 32 hours in either water or 5 μM ABA at room temperature under continuous illumination, after which RNA was isolated using Concert™ Plant RNA Reagent followed by LiCl2 precipitation and DNase treated using RNase-free DNAse (Ambion). […] Biological duplicates with triple technical replicate measurements were conducted and gene expression levels were determined. […] Real-time quantitative PCR analysis was performed by ΔΔCt method of relative quantification. […]

B1: PYL2^CA3: PYL2 mutant (H65P, V87F, F165V); expressed in plants as 35S-driven GFP fusion (protein)
chain: HHHHHHMSSSPAVKGLTDEEQKTLEPVIKTYHQFEPDPTTCTSLITQRIHAPASVVWPLIRRFDNPERYKPFVKRCRLISGDGDVGSVREVTFISGLPASTSTERLEFVDDDHRVLSFRVVGGEHRLKNYKSVTSVNEFLNQDSGKVYTVVLESYTVDIPEGNTEEDTKMVVDTVVKLNLQKLGVAATSAPMHDDE
NaCl resistance of aba2 mutant seed germination (aba2-1 mutant seeds): suppressed
paclobutrazol resistance of aba2 mutant seed germination (aba2-1 mutant seeds): suppressed
levels of ABA-regulated genes (Em6, LEA, Rd29b) [1]: elevated levels of ABA-regulated genes

Source: US10704056B2, “Constitutively active ABA receptor mutants” (The Regents of the University of California, priority 2011, dated 2020)
